Experimental data taken from patent US20230192896A1 (published 2023).
Substitutions are numbered along the chain they refer to.

T1: FX zymogen (UniProt P00742 41-179; P00742 183-488)
T1 chain 1: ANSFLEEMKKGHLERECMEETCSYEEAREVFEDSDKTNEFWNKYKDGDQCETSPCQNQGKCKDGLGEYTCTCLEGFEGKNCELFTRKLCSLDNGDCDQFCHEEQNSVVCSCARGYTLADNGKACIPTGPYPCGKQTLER
T1 chain 2: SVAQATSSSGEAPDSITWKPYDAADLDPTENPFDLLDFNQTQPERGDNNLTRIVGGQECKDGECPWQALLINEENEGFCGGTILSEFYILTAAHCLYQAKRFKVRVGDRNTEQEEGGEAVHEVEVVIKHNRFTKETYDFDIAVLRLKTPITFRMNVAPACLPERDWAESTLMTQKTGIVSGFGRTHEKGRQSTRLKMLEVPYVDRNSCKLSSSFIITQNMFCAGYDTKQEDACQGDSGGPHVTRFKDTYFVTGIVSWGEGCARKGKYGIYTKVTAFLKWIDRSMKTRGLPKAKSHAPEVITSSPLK

B1: BIIB-12-1306 (antibody, V domains shown)
VH: QVQLQESGPGLVKPSQTLSLTCTVSGGSISSGGYYWSWIRQHPGKGLEWIGSIYYSGSTYYNPSLKSRVTISVDTSKNQFSLKLSSVTAADTAVYYCARGAGGSAPWGQGTLVTVSS
VL: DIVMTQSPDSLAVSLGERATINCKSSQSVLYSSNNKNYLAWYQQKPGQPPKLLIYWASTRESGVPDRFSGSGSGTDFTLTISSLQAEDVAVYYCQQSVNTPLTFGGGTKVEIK
B2: BIIB-12-915 (antibody, V domains shown)
VH: QLQLQESGPGLVKPSETLSLTCTVSGGSISSSRYYWGWIRQPPGKGLEWIGSIYYSGSTYYNPSLKSRVTISVDTSKNQFSLKLSSVTAADTAVYYCARVGGGYANPWGQGTLVTVSS
VL: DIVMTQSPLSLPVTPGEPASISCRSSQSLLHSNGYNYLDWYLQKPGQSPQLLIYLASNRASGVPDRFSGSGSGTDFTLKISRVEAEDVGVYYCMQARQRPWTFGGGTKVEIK
B3: BIIB-12-1332 (antibody, V domains shown)
VH: QVQLVQSGAEVKKPGASVKVSCKASGYTFTSYYMSWVRQAPGQGLEWMGIINPSGGSTSYAQKFQGRVTMTRDTSTSTVYMELSSLRSEDTAVYYCARLGRKSRVFDIWGQGTMVTVSS
VL: DIQMTQSPSSVSASVGDRVTITCRASQGISSWLAWYQQKPGKAPKLLIYAASSLQSGVPSRFSGSGSGTDFTLTISSLQPEDFATYYCQQVNSFPLTFGGGTKVEFK
B4: BIIB-12-1295 (antibody, V domains shown)
VH: QVQLVQSGAEVKKPGASVKVSCKASGYTFTSYYMVWVRQAPGQGLEWMGIINPSGGSTSYAQKFQGRVTMTRDTSTSTVYMELSSLRSEDTAVYYCARVGGATTGKIGYGMDVWGQGTTVTVSS
VL: B3 VL with S53N, V91A, N92I, F94L, L96I, F106I
B5: BIIB-12-1298 (antibody, V domains shown)
VH: QVQLVESGGGVVQPGRSLRLSCAASGFTFSSYGMHWVRQAPGKGLEWVAVISYDGSNKYYADSVKGRFTISRDNSKNTLYLQMNSLRAEDTAVYYCAKGGSDRRVGSWGQGTLVTVSS
VL: B3 VL with V91T, F94L, L96I, F106I
B6: BIIB-12-1294 (antibody, V domains shown)
VH: B3 VH with S35H, L99G, G100T, K102S, V105D, F106M, I108V, M114T
VL: B3 VL with S10T, V11L, G28S, A50K, Q55E, D70E, E81D, S93T, L96F, F106I
B7: BIIB-12-929 (antibody, V domains shown)
VH: B3 VH with S35H, L99D, G100Q, R101G, K102Y, V105S
VL: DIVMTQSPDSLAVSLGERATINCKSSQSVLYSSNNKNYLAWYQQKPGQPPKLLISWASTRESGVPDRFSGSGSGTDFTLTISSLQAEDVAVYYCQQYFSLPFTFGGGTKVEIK
B8: BIIB-12-921 (antibody, V domains shown)
VH: QVQLVESGGGVVQPGRSLRLSCAASGFTFSSYGMHWVRQAPGKGLEWVAVISYDGSNKYYADSVKGRFTISRDNSKNTLYLQMNSLRAEDTAVYYCAKVGDRGTRAFDPWGQGTLVTVSS
VL: B3 VL with S31R, V91G, S93V, F106I
B9: BIIB-12-916 (antibody, V domains shown)
VH: QVQLVQSGAEVKKPGASVKVSCKASGYTFTSYYMHWVRQAPGQGLEWMGIINPSGGSTSYAQKFQGRVTMTRDTSTSTVYMELSSLRSEDTAVYYCARGGRQKATRRVDVWGQGTVVTVSS
VL: B3 VL with V11L, G28S, W32Y, A34N, V91L, N92A, S93I, F94T, L96F, F106I
B10: BIIB-12-1293 (antibody, V domains shown)
VH: QVQLVQSGAEVKKPGASVKVSCKASGYTFTSYYMHWVRQAPGQGLEWMGIINPSGGSTSYAQKFQGRVTMTRDTSTSTVYMELSSLRSEDTAVYYCARGSGGKHRGLDVWGQGTMVTVSS
VL: B3 VL with V91A, S93I, L96F, F106I
B11: BIIB-12-1301 (antibody, V domains shown)
VH: QVQLVESGGGVVQPGRSLRLSCAASGFTFSSYGMHWVRQAPGKGLEWVAVISYDGSNKYYADSVKGRFTISRDNSKNTLYLQMNSLRAEDTAVYYCARTGNYGRGMPYWGQGTLVTVSS
VL: EIVLTQSPATLSLSPGERATLSCRASQSVSSYLAWYQQKPGQAPRLLIYDASKRATGIPARFSGSGSGTDFTLTISSLEPEDFAVYYCQQSSSWPPTFGGGTKVEIK
B12: BIIB-12-1311 (antibody, V domains shown)
VH: QVQLVESGGGVVQPGRSLRLSCAASGFTFSSYGMHWVRQAPGKGLEWVAVISYDGSNKYYADSVKGRFTISRDNSKNTLYLQMNSLRAEDTAVYYCAKGRHYWAVWGQGTLVTVSS
VL: B11 VL with K53N, S91A, S93N, W94L
B13: BIIB-12-892 (antibody, V domains shown)
VH: QVQLVQSGAEVKKPGASVKVSCKASGYTFTSYYMHWVRQAPGQGLEWMGIINPSGGSTSYAQKFQGRVTMTRDTSTSTVYMELSSLRSEDTAVYYCARGLGRRTPTAFDIWGQGTMVTVSS
VL: B11 VL with K53N, S91R, S92L, S93N, W94L, P96L
B14: BIIB-12-1292 (antibody, V domains shown)
VH: B13 VH with M34I, G99D, L100P, T104Q, P105S, T106S, A107G, I110Y, M116L
VL: B11 VL with L4M, A51S, K53N, S91R, S92L, S93N, W94F, P96F
B15: BIIB-12-926 (antibody, V domains shown)
VH: B9 VH with G99D, Q102M, K103A, A104R, T105G, R106A, R107S, V108P, V110Y, V116L
VL: B11 VL with L4M, L13V, Y32N, D50G, K53T, D70E, E79Q, P80S, S91H, S93F
B16: BIIB-12-1322 (antibody, V domains shown)
VH: QVQLVQSGAEVKKPGASVKVSCKASGYTFTSYYIHWVRQAPGQGLEWMGIINPSGGSTSYAQKFQGRVTMTRDTSTSTVYMELSSLRSEDTAVYYCARSRQRHRGDWYFDLWGRGTLVTVSS
VL: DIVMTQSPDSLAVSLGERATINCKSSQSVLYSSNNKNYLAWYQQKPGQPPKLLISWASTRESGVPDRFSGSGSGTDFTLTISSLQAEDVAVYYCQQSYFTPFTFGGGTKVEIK
B17: BIIB-12-891 (antibody, V domains shown)
VH: B13 VH with M34I, G99A, L100S, G101I, R102Y, T104G, P105L, T106G
VL: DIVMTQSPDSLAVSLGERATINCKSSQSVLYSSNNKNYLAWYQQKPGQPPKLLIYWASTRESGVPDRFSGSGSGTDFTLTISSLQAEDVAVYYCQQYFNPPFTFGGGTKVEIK
B18: BIIB-12-904 (antibody, V domains shown)
VH: B5 VH with K98R, G100S, S101G, D102R, R103S, R104G, V105Y, G106H, S107Y
VL: EIVMTQSPATLSVSPGERATLSCRASQSVSSNLAWYQQKPGQAPRLLIYGASTRATGIPARFSGSGSGTEFTLTISSLQSEDFAVYYCQQAFNWPPTFGGGTKVEIK
B19: BIIB-12-936 (antibody, V domains shown)
VH: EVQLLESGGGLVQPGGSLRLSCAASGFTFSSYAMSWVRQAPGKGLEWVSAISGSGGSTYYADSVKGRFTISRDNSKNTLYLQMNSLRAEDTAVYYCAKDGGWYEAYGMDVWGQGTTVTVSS
VL: B18 VL with A91S, F92H, W94L
B20: BIIB-12-917 (antibody, V domains shown)
VH: EVQLVQSGAEVKKPGESLKISCKGSGYSFTTYWIGWVRQMPGKGLEWMGIIYPGDSDTRYSPSFQGQVTISADKSISTAYLQWSSLKASDTAMYYCARGRFRPRGRFDYWGQGTLVTVSS
VL: B18 VL with A91L, W94H

Target: T1, FX zymogen
Assay: BLI

Kd | Binder
47 nM | B1
34.4 nM | B2
53.5 nM | B3
42.6 nM | B4
33.5 nM | B5
37.3 nM | B6
15.2 nM | B7
23.1 nM | B8
15.6 nM | B9
26 nM | B10
65 nM | B11
29 nM | B12
33.2 nM | B13
65.5 nM | B14
24 nM | B15
36.1 nM | B16
65.2 nM | B17
42.3 nM | B18
66 nM | B19
31.5 nM | B20
